According to paper PMC2797447 (Blood cells, molecules & diseases, 2009):

Target: the molecule itself
Assay: cross-linking

B1: mouse Kcc1 K-Cl cotransporter (natural protein, UniProt Q9JIS8 1-1085, looked up)
chain: MPHFTVVPVDGPRRGDYDNLEGLSWVDYGERAEREDSDGQGNHRENSPFLCPLDASRGNDYYDRNLALFEEELDIRPKVSSLLGKLVSYTNLTQGAKEHEEAESGEGGRRRAAKAPSMGTLMGVYLPCLQNIFGVILFLRLTWMVGTAGVLQALLIVLICCCCTLLTAISMSAIATNGVVPAGGSYFMISRSLGPEFGGAVGLCFYLGTTFAAAMYILGAIEILLTYIAPPAAIFYPSGTHDMSSATLNNMRVYGTIFLTLMTLVVFVGVKYVNKFASLFLACVIISILSIYAGGIKSIFDPPVFPVCMLGNRTLSRDQFDICAKTVVVDNETVATRLWTFFCHSPNLTADSCDPYFLLNNVTEIPGIPGAAAGVLQENLWSAYLEKGEVVEKHGLPSTDTLGLKESLSLYVVADIATSFTVLVGIFFPSVTGIMAGSNRSGDLRDAQKSIPVGTILAIVTTSLVYFSSVILFGACIEGVVLRDKYGDGVSRNLVVGTLAWPSPWVIVVGSFFSTCGAGLQSLTGAPRLLQAIAKDNIIPFLRVFGHGKANGEPTWALLLTALIAELGILIASLDMVAPILSMFFLMCYLFVNLACAVQTLLRTPNWRPRFKYYHWTLSFLGMSLCLALMFVSSWYYALVAMLIAGMIYKYIEYQGAEKEWGDGIRGLSLSAARYALLRLEEGPPHTKNWRPQLLVLLKLDEDLHVKYPRLLTFASQLKAGKGLTIVGSVIQGSFLESYGEAQAAEQTIKNMMDIEKVKGFCQVVVASKVREGLAHLIQSCGLGGMRHNSVVLGWPYGWRQSEDPRAWKTFIDTVRCTTAAHLALLVPKNIAFYPSNHERYLDGHIDVWWIVHDGGMLMLLPFLLRQHKVWKKCRMRIFTVAQMDDNSIQMKKDLAIFLYHLRLEAEVEVVEMHNSDISAYTYERTLMMEQRSQMLRQMRLTKTERDREAQLVKDRHSALRLESLYSDEEEESVAGADKIQMTWTRDKYMAEPWDPSHAPDNFRELVHIKPDQSNVRRMHTAVKLNEVIVTRSHDARLVLLNMPGPPKNSEGDENYMEFLEVLTEGLERVLLVRGGGREVITIYS
For B1, the “stoichiometry N” value was roughly 2.
